# Test: yeast display, Sf9 membrane polyspecificity reagent, FACS + sequencing; frameworks hold sequencing errors
# How it was run: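 In a synthetic yeast display library (Saccharomyces cerevisiae BJ5465), nanobody expression was induced with galactose for 36–48 hours. FACS gates were set low and high (top ~1%) using anti-HA fluorescence for expression and streptavidin fluorescence for binding of the Sf9 membrane reagent. Each polyreactivity label is drawn from the gate of origin.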
row,Sequence,polyreactivity (PSR sort gate)
1,QVQLVESGGGLVQAGGSLRLSCAASGRIGYYAMGWNRQAPGKERELVAAISYGGGSTYYADSVKGRFTISRDNAKNTVYLLMNSLKPEDTAVYYCAARWGKSWRGYGYWGQGTQVSVSS,high polyreactivity
2,QVQLVESGGGLVQAGGSLRLSCAASGRIGYYAMGWYRQAPGKERELVAAISYGGGSTYYADSVKGRFTISRDNAKNTVYLQMNSLKPEDTAVYYCAARWGISWRGYGYWGQGTQVTVSS,high polyreactivity
3,QVQLVESGGGLVQAGGSLRLSCAASGRIIAGYAMGLYRQAPGKERELVAAISSGGSTYYADSVKGRFTISRDNAKNTVYLQMNSLKPSDTAVYYCAAGGPRVYGTKFYYCGQGTQVTVSS,high polyreactivity
4,QVQLVESGGGLVQAGGSLRLSCAASGRIIDNNAMGWYRPAPGKERQLVAAISWSGTSTYYADSVKGRFTISRDHAKNTVYLQMNSLKPEDTAVYYCNADSWFYTRFDYWGQGTQVTVSS,high polyreactivity
5,QVQLVESGGGLVQAGGSLRLSCAASGRIIGFNAMGWYIQAPAKERELVASIRTTGGSTRYADSVKWRFTISRDNATNTVYLQMNSLKPEDTAVYYCADRWCKTLWQYNYWGQGTQVTVSS,high polyreactivity
6,QVQLVESGGGLVQAGGSLRLSCAASGRIIGQYAMGWYRQAPGKERELVAAITQRGGSTYYADSVKGRFTISRDNAKNTVYLLMNCLKPEDTAVYYCNKRYRFTGIRDPFDYWGQGTQVTVSS,low polyreactivity
7,QVQLVESGGGLVQAGGSLRLSCAASGRIIGRYAMGWYRQAPGKERELVAGITIRGGSTYYADSVKGRITISRDNAKNTVYLQMNSLKPEDTAVYYCAADDKGGLAVEYDYWGQGTQVTVSS,low polyreactivity
8,QVQLVESGGGLVQAGGSLRLSCAASGRIIGSNTMGWYRQAPGKEREFVATISSSGGSTYYADSVKGRFTISRDNAKNTVYLQMNSLKPEDTAVYYCNTRRRYPFRPYPEWRNYYWGHGTQVTVSS,high polyreactivity
9,QVQLVESGGGLVQAGGSLRLSCAASGRIIKFYAMGWYRQAPGKERELVAVIRSGTRTKYADSVKGRFTISRDNAKNTVYLQMNSLKPVDTAVYYCIRYFSEALLHGSSYNRYYYWGQGTQVTVSS,low polyreactivity
10,QVQLVESGGGLVQAGGSLRLSCAASGRIIQRYAMGWYRQAPGKERELVATITFNTASTYYADSVKGRFTISRDNAQNTVYLQMNSLKPEDTAVYYCAAKHRGGYGYWGQGTQVTVSS,high polyreactivity
11,QVQLVESGGGLVQAGGSLRLSCAASGRIIRYYAMGWYRQAPGKERELVAAISKSGGSTYYADSVKGRFTISRDNAKNTVYLQMNSMKREDTAVFFCAAGTSRYVYHSYGKYEYWGQGTQVTVSS,high polyreactivity
12,QVQLVESGGGLVQAGGSLRLSCAASGRIIRYYAMGWYRQAPGKERELVATISRSGGSTFYADSVKGRFTISRDNAKNTVYLQMNSLKPEDTAVYYCNARYQTGGYGYWGQGTQVTVSS,high polyreactivity
13,QVQLVESGGGLVQAGGSLRLSCAASGRIIRYYAMGWYRQAPGKETELVAITSSGGRTYYADSVKGRFTISRDNAKNTVYLQMNSLKPEDTAVYYCAVDAHWPGRGERFIRLDYWGQGTQVSVSS,low polyreactivity
14,QVQLVESGGGLVQAGGSLRLSCAASGRIISRYAMGWYRQAPGKERELVATITWSTTSTYYADSVKGRFTISRDNAKNTVYLQMNSLKPEDTAVYYCAASIIPGFRRDPFGYWGQGTQVTVSS,low polyreactivity
15,QVQLVESGGGLVQAGGSLRLSCAASGRIITKYTMGWYRQAPGKVRELVAAISRSDRTNYADSVKGRFTISRDNAKNTVYLQMNSLKPEDTAVYYCNARHSYWTGRRVTDDYDYRGQGTQVTVSS,high polyreactivity
16,QVQLVESGGGLVQAGGSLRLSCAASGRIITTYAMGWYRQAPGKERELVAAISRSSGSTYYADSVKGRFTISRDNAKNTVYLQMNSLKPEDTAVYYCNAYQRKSGRYDYWGQGTQVTVSS,high polyreactivity
17,QVQLVESGGGLVQAGGSLRLSCAASGRIITWYAMGCYRQAPGKERELVAAISWSGGSTYYADSVTGRFTISRDNAKNTVYLQMNSLKPEDTAVYYCNKVTVTGLYDYWGQGTQVTVSS,high polyreactivity
18,QVQLVESGGGLVQAGGSLRLSCAASGRIIVKYAMRSYRQAPGKERELVAAITNSGGRTYYAACVKGRFTISRDNAKNTVYFQMNSLKPEDTAVYYCAALFHASTRQMDYWGQGTQVTVSS,high polyreactivity
19,QVQLVESGGGLVQAGGSLRLSCAASGRIIVLYAMGWYRQAPGKERELVASIRSGGSTNYADSVKGRFTISRDNAKNTVYLQMNSLKPEDTAVYYCAARIRSVVPFDMDYWGQGTQVTVSS,low polyreactivity
20,QVQLVESGGGLVQAGGSLRLSCAASGRIIVLYAMGWYRQAPGKERELVASIRSGGSTNYADSVKGRFTISRDNAKNTVYLQMNSLKPEDTAVYYCAARPDHKRYDYWGQGTQVTVSS,low polyreactivity
21,QVQLVESGGGLVQAGGSLRLSCAASGRIIVPYVMGWYRLAPGKERELVAAISTSGTSTYYADSVKGRFTISRDNAKNTVYLQMNSLKPEDTAVYYCAKRSGARHRLMDYWGQGTQVTVSS,low polyreactivity
22,QVQLVESGGGLVQAGGSLRLSCAASGRIIYTNALGWYRQAPGKERELVAAINRSGGITYYADSVKGRFTISRDNAKNTVYLQMNSLKPEDTAVYYCAKDYSWASYNHDYWGQGTQVTVSS,low polyreactivity

row,Sequence,polyreactivity (PSR sort gate)
1,QVQLVESGGGLVQAGGSLRLSCAASGRILAGYAMGWYRQAPGKERELVAAITRGGTTYYADSVKGRFTISRDNAKYTVYLQMNSLKPEDTAVVYTVSSAQYDYWGQGTQVTVSS,low polyreactivity
2,QVQLVESGGGLVQAGGSLRLSCAASGRILAGYTMGWYRQAPGKERELVAAISDRGGSTYYADSVKGRFTISRDNAKNTVYLQMNSLKPEDTAVYYCNAVVYSYALTPSYAGDYWGQGTQVTVSS,low polyreactivity
3,QVQLVESGGGLVQAGGSLRLSCAASGRILAPYAMGWYRQAPGKERELVAAISASGGTTYYADSVKGRFTISRDNAKNTVYLQMNSLKPEDTAVYYCNARWSPGNLRYGREGDYWGQGTQVTVSS,high polyreactivity
4,QVQLVESGGGLVQAGGSLRLSCAASGRILAYYAMGWYRQAPGKERELVDAINRSGVRTYYADSVKGRFTISRDYAKNTVYLQMNSLKPEDTAVYYCAAPGQHSWGQGTQVTVSS,high polyreactivity
5,QVQLVESGGGLVQAGGSLRLSCAASGRILDANDMGWYRQAPGKERELVAGINSGGSTYYADSVKGRFTISRDNAKNTVYLQMNSLKPEDTAVYYCAAGGVSAKYDYWGQGTQVTVSS,low polyreactivity
6,QVQLVESGGGLVQAGGSLRLSCAASGRILDINTMGWYRHPPGKERELVAAITWSGVSTYYADSVKGRFTISRDNAKNTVYLQMNSLKPEDTAVYYCAARPYYTWRYLPTKSGDYWGQGTQVTVSS,low polyreactivity
7,QVQLVESGGGLVQAGGSLRLSCAASGRILDYNAMGWYIQAPGKERELVAAITLNGGGTYYADSVKGRFTISRDNAKNSVYLQMNSLKPEDTAVYYCNADYRRYPEFDYWGQGTHVTVSS,high polyreactivity
8,QVQLVESGGGLVQAGGSLRLSCAASGRILDYNAMGWYRQAPGKERELVADISGSGDSTYYADSVKGRFTISRDNAKNTVYLQMNSLKPEDTAVYYCNRQTVRPHSRAGYDYWGQGTQVTVSS,low polyreactivity
9,QVQLVESGGGLVQAGGSLRLSCAASGRILELNAMGWYRQAPGKERELVAGISNSGDTTYYADSVKGRFTISRDNAKNTVYLQMNSLKPEDTAVYYCNADGVVTWYDYWGQGTQVTVSS,low polyreactivity
10,QVQLVESGGGLVQAGGSLRLSCAASGRILEYNAMGWYRQAPGKERELVAAITSDGSTNYADSVKGRFTISRDNAKNTVYLQMNSLKPEDTAVYYCNTRYSLYTKYAYYDELDYWGQGTQVTLSS,low polyreactivity
11,QVQLVESGGGLVQAGGSLRLSCAASGRILGGNTMGWYRQAPGKERELVAGISYSGGRTYYADSVKGRFTISRDNAKHTVYLQMNSLKPEDTAVYYCAAEYDWYSYQLDYWGQGTQVTVSS,high polyreactivity
12,QVQLVESGGGLVQAGGSLRLSCAASGRILGNNVMGWYRQAPGKERELVAAITSSGGRTYYADSVKGRFTISRDNAKNTVYLQMNSLKPVDTAVYYCAAERRYYGKFNYWGQGTQVTVSS,high polyreactivity
13,QVQLVESGGGLVQAGGSLRLSCAASGRILGRNAMGWYRQAPGKERELVATITSRGGSTYYADSVKGRFTISRDNAKNTVYLQMNSLKPEDTAVYYCAAPRYYYYSYDYWGQGTQVTVSS,high polyreactivity
14,QVQLVESGGGLVQAGGSLRLSCAASGRILGRYAMGWYRQAPGKERELVAAITARTGSTYYADSVKGRFTISRDNAKNTVYLQMNSLKPEDTAVYYCAAERGWWRNDFDYWGQGTQVTVSS,high polyreactivity
15,QVQLVESGGGLVQAGGSLRLSCAASGRILGTNAKGWYRQAPGKERELVAAISRGGSTYYADSVKGRFTISRDNANNTVYLQMNSLKPEDTAVFYCAVTVLSKRRYYYWGQGTQVTVSS,high polyreactivity
16,QVQLVESGGGLVQAGGSLRLSCAASGRILGYYAMGWYRQAPGKERELVAAISSGDSTNYADSVKGRFTISRDNAKNTVYLQMNSLKPEDTAVYYCAAKGWIWNPYNYWGQGTQVTVSS,low polyreactivity
17,QVQLVESGGGLVQAGGSLRLSCAASGRILHGYAMGWYRQAPGKERELVAAITSSGGRTYYADSVKGRFPISRDNAKNTVYLQMISLKPEDTAVYYCAADRPAYRTGDSKYDYWGQGTQVTVSS,low polyreactivity
18,QVQLVESGGGLVQAGGSLRLSCAASGRILHGYAMGWYRQAPGKERELVAAITSSGGRTYYADSVKGRFTISRDNAKNPVYLQMNSLKPEDTAVYYCAADRPAYRTGESKYDYWGQGTQVTVSS,low polyreactivity
19,QVQLVESGGGLVQAGGSLRLSCAASGRILIGNALGWYRQAPGKERELVAAISKRGGSTYYADSVKGRFTMSRDNAKNTDYLHMNSLKPEDTAVYYCNIESLYREFDYWGQGTLVTVSS,low polyreactivity
20,QVQLVESGGGLVQAGGSLRLSCAASGRILNINAMGWYRQAPGKERELVAAITWRGGRTFYADSVKGRFTISRDNAKNTVYLQMNSLKPEDTAVYYCAKGYRGYSYGYWGQGTQVTVSS,high polyreactivity
21,QVQLVESGGGLVQAGGSLRLSCAASGRILNINAMGWYRQAPGQERELVAAITWRGGRTFYADSVKGRFTISRDNAKNTVYLQMNSLKPEDTAVYYCAASSNTWYPTGYYWGQGTQVTVSS,high polyreactivity

# — the nanobody polyreactivity screen of Harvey et al. (2022)
